# What was measured:
# [1] = target: T1, NaeI restriction endonuclease (recombinant, crude extract of NEB#777) T2A (Nocardia aerocolonigenes) (UniProt P50187); test: cleavage_in_vitro; details: PstI-codigested pBR322, NEBuffer 1, 37 C, 1 h; after overnight IPTG induction
# T1 sequence: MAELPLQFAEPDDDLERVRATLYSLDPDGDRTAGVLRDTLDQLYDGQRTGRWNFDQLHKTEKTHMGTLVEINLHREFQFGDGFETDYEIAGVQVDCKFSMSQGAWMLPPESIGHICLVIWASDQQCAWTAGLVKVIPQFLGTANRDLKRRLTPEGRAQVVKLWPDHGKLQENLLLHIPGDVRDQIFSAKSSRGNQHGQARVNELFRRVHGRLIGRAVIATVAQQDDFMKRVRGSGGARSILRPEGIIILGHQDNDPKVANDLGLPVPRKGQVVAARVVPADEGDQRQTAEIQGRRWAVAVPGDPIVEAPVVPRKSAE
# [2] = target: T2, NaeI restriction endonuclease (recombinant, from pCTnaeIR16-1) T2A (Nocardia aerocolonigenes) (UniProt P50187); test: cleavage_in_vitro; details: 60 U, 4 h, 37 C, 10 mM MgCl2; nonspecific nicking test
# T2 sequence: T1 sequence
Substance,activity [1],activity (% RFI converted to RFII) [2]
pBR322 plasmid DNA,77000 U/g cells,–
phiX174 RFI DNA,–,< 5
